# Experimental data reported in paper PMC9524465 (ACS catalysis, 2021).
# Target: the molecule itself
# Experiment: crystal structure
protein,measurement,value
"GIAAIKQEHAAIKQEIAAIKQEIAAIKWEG (not fully specified; acetylated N-terminal Gly (Ac-); amidated C-terminal Gly (-CONH2)) [[3SCC-(I9H)3] artificial copper peptide (ArCuP), de novo designed trimeric coiled coil peptide]",stoichiometry N,3
